Data as given in patent US8822661B2, “Xylose reductase mutants and uses thereof” (The Board of Trustees of the University of Illinois, priority 2007, dated 2014).
Like-named read-outs stand apart in the source and are kept apart here.

Tests used:
[1] = cited from earlier work
[2] = Kinetic characterization of purified mutant NcXRs, substrate D-xylose (NADPH oxidation at A340); type: biochemical, Neurospora crassa
Method: (§1) NADPH concentration was kept >100 μM at all times, making it the non-rate-limiting reagent assuming no significant change in KM for mutants from the 1.8 μM for wild-type NcXR toward NADPH. All reactions were performed at pH 6.3 and 25° C., allowing for easy comparison to published data on wild-type NcXR. Initial reaction rate at each substrate concentration was measured by monitoring the rate of change at A340 upon addition of purified enzyme to the substrate mix. All readings were taken in at least two independent two data sets to minimize random error and eliminate experimental artifacts. […] Maximum reaction rates (kcat) were calculated based on molecular weight of dimeric NcXR.
(§2) Michaelis-Meten kinetic constants (KM, kcat) were determined. All reactions were performed at 25° C. in 50 mM MOPS buffer pH 6.3. NADPH concentration was kept >100 μM, usually between 100-400 μM and substrate concentrations were between 5 and 1500 mM for xylose and between 5 and 2000 mM for arabinose. Purified enzymes were kept on ice at all times to minimize thermal inactivation. Calculations were based on at least two independent datasets of two readings each, and were performed by least-squares fit method in Microcal Origin 5.0 (OriginLab Corporation, Northampton, Mass.). Substrate solutions were maintained at 25° C. in ThermoNESLAB RTE7 refrigerated water bath (Thermo Electron Corporation, Waltham, Mass.). A water-circulating jacketed the cuvette holder in Varian Cary 100 Bio UV-visible spectrophotometer (Varian, Palo Alto, Calif.). 500 μL substrate solution was added to a quartz cuvette with 10 mm path-length and mixed with 0.3-2 μg purified enzyme. Reaction rate was monitored as decrease in absorbance at 340 nm, corresponding to oxidation of NADPH (c=6220 M^−1 cm^−1) to NADP. Initial reaction rate was measured as the slope between 0.05 min and 0.25 min. Specific activity calculated for various substrate concentrations from initial reaction rates was used to calculate Michaelis-Menten constants.

[3] = Kinetic characterization of purified mutant NcXRs, substrate L-arabinose (NADPH oxidation at A340); type: biochemical, Neurospora crassa
Method: as §1, §2

[4] = XR of the named organism, cited from earlier work
[5] = XR of the named organism, read-out: KM, NADPH

B1: P. siptitus: xylose reductase (XR) from P. siptitus as printed (protein, UniProt P31867 1-318, looked up)
NAD(P)H-dependent D-xylose …: MPSIKLNSGYDMPAVGFGCWKVDVDTCSEQIYRAIKTGYRLFDGAEDYANEKLVGAGVKKAIDEGIVKREDLFLTSKLWNNYHHPDNVEKALNRTLSDLQVDYVDLFLIHFPVTFKFVPLEEKYPPGFYCGKGDNFDYEDVPILETWKALEKLVKAGKIRSIGVSNFPGALLLDLLRGATIKPSVLQVEHHPYLQQPRLIEFAQSRGIAVTAYSSFGPQSFVELNQGRALNTSPLFENETIKAIAAKHGKSPAQVLLRWSSQRGIAIIPKSNTVPRLLENKDVNSFDLDEQDFADIAKLDINLRFNDPWDWDKIPIFV
- Km [1, 5]: 9 µM

B2: C. tenuis: xylose reductase (XR) from C. tenuis (protein, UniProt O74237 1-322, looked up)
NAD(P)H-dependent D-xylose …: MSASIPDIKLSSGHLMPSIGFGCWKLANATAGEQVYQAIKAGYRLFDGAEDYGNEKEVGDGVKRAIDEGLVKREEIFLTSKLWNNYHDPKNVETALNKTLADLKVDYVDLFLIHFPIAFKFVPIEEKYPPGFYCGDGNNFVYEDVPILETWKALEKLVAAGKIKSIGVSNFPGALLLDLLRGATIKPAVLQVEHHPYLQQPKLIEFAQKAGVTITAYSSFGPQSFVEMNQGRALNTPTLFAHDTIKAIAAKYNKTPAEVLLRWAAQRGIAVIPKSNLPERLVQNRSFNTFDLTKEDFEEIAKLDIGLRFNDPWDWDNIPIFV
- Km [1, 5]: 4.8 µM

B3: wt: wild-type xylose reductase from Neurospora crassa, SEQ ID NO: 1 (NCU 08384.1) (protein, listed as Neurospora crassa)
chain: MVPAIKLNSGFDMPQVGFGLWKVDGSIASDVVYNAIKAGYRLFDGACDYGNEVECGQGVARAIKEGIVKREELFIVSKLWNTFHDGDRVEPIVRKQLADWGLEYFDLYLIHFPVALEYVDPSVRYPPGWHFDGKSEIRPSKATIQETWTAMESLVEKGLSKSIGVSNFQAQLLYDLLRYAKVRPATLQIEHHPYLVQQNLLNLAKAEGIAVTAYSSFGPASFREFNMEHAQKLQPLLEDPTIKAIGDKYNKDPAQVLLRWATQRGLAIIPKSSREATMKSNLNSLDFDLSEEDIKTISGFDRGIRFNQPTNYFSAENLWIFG
- xylose over arabinose specificity, in words [2]: higher than twofold
- Selectivity (xylose-to-arabinose) ([2]; ratio of catalytic efficiency between xylose and arabinose): 2.4
- Catalytic Efficiency (relative) ([2]; substrate D-Xylose, relative to wt with D-xylose): 100%
- Km ([3]; pH 6.3, 25° C., NADPH >100 μM): 40000 µM
- kcat ([3]; pH 6.3, 25° C., based on dimeric NcXR): 30 s⁻¹
- Catalytic Efficiency (relative) ([3]; relative to wt with D-xylose): 41%
- kcat [4]: 60 s⁻¹
- Km ([4]; read-out: KM, xylose): 34000 µM
- Km [1, 5]: 1.8 µM
- Km ([1]; wild-type NcXR, published value, read-out: KM toward NADPH): 1.8 µM

B4: S. cerevisiae: xylose reductase (XR) from S. cerevisiae (protein, UniProt P38715 2-327, looked up)
NADPH-dependent aldose …: SSLVTLNNGLKMPLVGLGCWKIDKKVCANQIYEAIKLGYRLFDGACDYGNEKEVGEGIRKAISEGLVSRKDIFVVSKLWNNFHHPDHVKLALKKTLSDMGLDYLDLYYIHFPIAFKYVPFEEKYPPGFYTGADDEKKGHITEAHVPIIDTYRALEECVDEGLIKSIGVSNFQGSLIQDLLRGCRIKPVALQIEHHPYLTQEHLVEFCKLHDIQVVAYSSFGPQSFIEMDLQLAKTTPTLFENDVIKKVSQNHPGSTTSQVLLRWATQRGIAVIPKSSKKERLLGNLEIEKKFTLTEQELKDISALNANIRFNDPWTWLDGKFPTFA
- Km [1, 5]: 7.6 µM
